Paper PMC11791078, “RECQ4-MUS81 interaction contributes to telomere maintenance with implications to Rothmund-Thomson syndrome” (Nature Communications, 2025)

T1: GST-MUS81-EME1 complex (UniProt Q96NY9 1-551; Q96AY2 1-570)
T1 construct: MUS81 subunit of the complex encoded by pGEX-6P-1-MUS81-HisEME1; EME1 subunit of the complex encoded by pGEX-6P-1-MUS81-HisEME1; Plasmid was a gift from Dr. Stephen West and Dr. Curtis Harris; the construct is not described further; source: E. coli Rossetta (DE3) pLysS, purified (Glutathione Sepharose, Heparin, MonoS)
T1 sequence (looked up) 1: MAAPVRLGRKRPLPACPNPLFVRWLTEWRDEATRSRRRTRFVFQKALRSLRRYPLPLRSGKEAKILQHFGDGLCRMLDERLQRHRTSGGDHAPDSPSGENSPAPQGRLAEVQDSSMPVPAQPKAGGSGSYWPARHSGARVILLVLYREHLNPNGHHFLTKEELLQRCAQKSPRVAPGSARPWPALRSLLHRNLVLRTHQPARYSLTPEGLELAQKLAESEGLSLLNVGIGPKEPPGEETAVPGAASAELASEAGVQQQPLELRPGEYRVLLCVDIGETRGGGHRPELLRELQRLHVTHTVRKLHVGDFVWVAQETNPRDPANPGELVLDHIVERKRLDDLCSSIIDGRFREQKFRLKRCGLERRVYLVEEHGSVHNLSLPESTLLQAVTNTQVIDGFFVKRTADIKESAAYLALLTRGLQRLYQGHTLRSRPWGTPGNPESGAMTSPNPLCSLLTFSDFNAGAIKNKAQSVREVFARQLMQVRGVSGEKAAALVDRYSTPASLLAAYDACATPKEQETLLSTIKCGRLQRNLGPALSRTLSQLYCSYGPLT
T1 sequence (looked up) 2: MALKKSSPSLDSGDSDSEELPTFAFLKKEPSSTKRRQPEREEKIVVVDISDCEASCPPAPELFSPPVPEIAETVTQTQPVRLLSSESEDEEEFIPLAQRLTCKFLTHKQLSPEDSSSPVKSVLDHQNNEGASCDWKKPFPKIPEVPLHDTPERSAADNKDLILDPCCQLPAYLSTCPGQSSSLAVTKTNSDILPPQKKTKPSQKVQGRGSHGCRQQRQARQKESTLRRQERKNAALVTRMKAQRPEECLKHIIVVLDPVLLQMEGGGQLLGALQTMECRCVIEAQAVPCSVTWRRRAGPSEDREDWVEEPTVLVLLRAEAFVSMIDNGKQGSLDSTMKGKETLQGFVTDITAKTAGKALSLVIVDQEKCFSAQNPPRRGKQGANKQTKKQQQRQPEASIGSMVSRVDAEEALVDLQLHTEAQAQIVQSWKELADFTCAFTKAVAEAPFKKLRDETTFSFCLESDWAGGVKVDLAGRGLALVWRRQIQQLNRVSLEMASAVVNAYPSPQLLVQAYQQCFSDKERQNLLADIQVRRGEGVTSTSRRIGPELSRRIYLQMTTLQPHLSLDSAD


How the values were obtained:
GST-MUS81-EME1 complex [1] = target: GST-MUS81-EME1 complex (UniProt Q96NY9)
GST-MUS81-EME1 complex [2] = target: T1, GST-MUS81-EME1 complex; assay: pull-down; purified GST-MUS81-EME1, GST-MUS81 or GST-MUS81 fragments (5 µg) incubated with MBP-tagged RECQ4 fragments (5 µg) and Glutathione Sepharose 4 Fast Flow beads in 1X K buffer with 150 mM KCl, 0.01% NP40, 1 mM DTT, 30 min, 4 °C; flow-through and bound fractions on SDS-PAGE, Coomassie blue; details: both partners purified

stimulation of MUS81-EME1 (0.5 nM) cleavage of 3'-flap DNA (6 nM), 20 min at 37 °C; RECQ4 5, 25 and 50 nM (GST-MUS81-EME1 complex [1]) [fold] | binding result (GST-MUS81-EME1 complex [2]) | Binder
> 10 |  | RECQ4 (WT), full-length (natural protein) MERLRDVRERLQAWERAFRRQRGRRPSQDDVEAAPEETRALYREYRTLKRTTGQAGGGLRSSESLPAAAEEAPEPRCWGPHLNRAATKSPQSTPGRSRQGSVPDYGQRLKANLKGTLQAGPALGRRPWPLGRASSKASTPKPPGTGPVPSFAEKVSDEPPQLPEPQPRPGRLQHLQASLSQRLGSLDPGWLQRCHSEVPDFLGAPKACRPDLGSEESQLLIPGESAVLGPGAGSQGPEASAFQEVSIRVGSPQPSSSGGEKRRWNEEPWESPAQVQQESSQAGPPSEGAGAVAVEEDPPGEPVQAQPPQPCSSPSNPRYHGLSPSSQARAGKAEGTAPLHIFPRLARHDRGNYVRLNMKQKHYVRGRALRSRLLRKQAWKQKWRKKGECFGGGGATVTTKESCFLNEQFDHWAAQCPRPASEEDTDAVGPEPLVPSPQPVPEVPSLDPTVLPLYSLGPSGQLAETPAEVFQALEQLGHQAFRPGQERAVMRILSGISTLLVLPTGAGKSLCYQLPALLYSRRSPCLTLVVSPLLSLMDDQVSGLPPCLKAACIHSGMTRKQRESVLQKIRAAQVHVLMLTPEALVGAGGLPPAAQLPPVAFACIDEAHCLSQWSHNFRPCYLRVCKVLRERMGVHCFLGLTATATRRTASDVAQHLAVAEEPDLHGPAPVPTNLHLSVSMDRDTDQALLTLLQGKRFQNLDSIIIYCNRREDTERIAALLRTCLHAAWVPGSGGRAPKTTAEAYHAGMCSRERRRVQRAFMQGQLRVVVATVAFGMGLDRPDVRAVLHLGLPPSFESYVQAVGRAGRDGQPAHCHLFLQPQGEDLRELRRHVHADSTDFLAVKRLVQRVFPACTCTCTRPPSEQEGAVGGERPVPKYPPQEAEQLSHQAAPGPRRVCMGHERALPIQLTVQALDMPEEAIETLLCYLELHPHHWLELLATTYTHCRLNCPGGPAQLQALAHRCPPLAVCLAQQLPEDPGQGSSSVEFDMVKLVDSMGWELASVRRALCQLQWDHEPRTGVRRGTGVLVEFSELAFHLRSPGDLTAEEKDQICDFLYGRVQARERQALARLRRTFQAFHSVAFPSCGPCLEQQDEERSTRLKDLLGRYFEEEEGQEPGGMEDAQGPEPGQARLQDWEDQVRCDIRQFLSLRPEEKFSSRAVARIFHGIGSPCYPAQVYGQDRRFWRKYLHLSFHALVGLATEELLQVAR
 | binds | MBP-RECQ4 (1-492) (domain or fragment, UniProt O94761 1-492, looked up, cloned into pMAL-c2x from pET32a-RECQ4-9XHis; source: E. coli BL21(DE3) pLysS, purified (His-Select nickel, amylose)) MERLRDVRERLQAWERAFRRQRGRRPSQDDVEAAPEETRALYREYRTLKRTTGQAGGGLRSSESLPAAAEEAPEPRCWGPHLNRAATKSPQSTPGRSRQGSVPDYGQRLKANLKGTLQAGPALGRRPWPLGRASSKASTPKPPGTGPVPSFAEKVSDEPPQLPEPQPRPGRLQHLQASLSQRLGSLDPGWLQRCHSEVPDFLGAPKACRPDLGSEESQLLIPGESAVLGPGAGSQGPEASAFQEVSIRVGSPQPSSSGGEKRRWNEEPWESPAQVQQESSQAGPPSEGAGAVAVEEDPPGEPVQAQPPQPCSSPSNPRYHGLSPSSQARAGKAEGTAPLHIFPRLARHDRGNYVRLNMKQKHYVRGRALRSRLLRKQAWKQKWRKKGECFGGGGATVTTKESCFLNEQFDHWAAQCPRPASEEDTDAVGPEPLVPSPQPVPEVPSLDPTVLPLYSLGPSGQLAETPAEVFQALEQLGHQAFRPGQERAVMRI
 | binds | MBP-RECQ4 (1-400) (domain or fragment, UniProt O94761 1-400, looked up, RECQ4 residues 1-400; cloned into pMAL-c2x from pET32a-RECQ4-9XHis; also called fragment (1-400); RECQ4 truncation (1-400 aa); source: E. coli BL21(DE3) pLysS, purified (His-Select nickel, amylose, MonoS)) MERLRDVRERLQAWERAFRRQRGRRPSQDDVEAAPEETRALYREYRTLKRTTGQAGGGLRSSESLPAAAEEAPEPRCWGPHLNRAATKSPQSTPGRSRQGSVPDYGQRLKANLKGTLQAGPALGRRPWPLGRASSKASTPKPPGTGPVPSFAEKVSDEPPQLPEPQPRPGRLQHLQASLSQRLGSLDPGWLQRCHSEVPDFLGAPKACRPDLGSEESQLLIPGESAVLGPGAGSQGPEASAFQEVSIRVGSPQPSSSGGEKRRWNEEPWESPAQVQQESSQAGPPSEGAGAVAVEEDPPGEPVQAQPPQPCSSPSNPRYHGLSPSSQARAGKAEGTAPLHIFPRLARHDRGNYVRLNMKQKHYVRGRALRSRLLRKQAWKQKWRKKGECFGGGGATVTTK
